One series in a line: in vitro. To be noted: human. The protocol: (§1) The cultures were incubated for 7 days at 37° C./5% CO2. Efficacy of the compounds was evaluated by measuring the amount of reverse transcriptase in the culture supernatant and toxicity was evaluated using XTT to measure cell viability. AZT was evaluated in parallel as an assay control.
The test system of another series is HIV-1US/92/727. Put plainly: Anti-HIV evaluation in PHA-stimulated human PBMCs, reverse transcriptase in supernatant. It is filed as cell-based. To be noted: HIV-1US/92/727, human PBMCs, 7 days. The protocol: as §1
For the next series, the system named is HIV-1ROJO. Put plainly: HIV-1 ROJO replication in human PBMC cultures, supernatant reverse transcriptase activity. It is filed as cell-based. To be noted: T-tropic primary isolate. The source says: (§2) To test the anti-HIV activity of CNID1 against HIV primary isolates in fresh human cells, monocyte-tropic HIV-1 strain Ba-L was obtained from the NIAID AIDS Research and Reference Reagent Program (National Institutes of Health, Bethesda, Md.). The low passage HIV-1 pediatric isolate ROJO was derived as described previously (Buckheit et al., AIDS Res. Hum. Retroviruses, 10: 1497-1506 (1994)). Human peripheral blood mononuclear cells (PBMCs) and macrophages were isolated from hepatitis and HIV seronegative donors following Ficoll-Paque centrifugation as described elsewhere (Gartner & Popovic, Techniques in HIV Research, Aldovini, A. and Walker B., eds., pp. 59-63, Stockton Press, New York, 1990). Antiviral assays were carried out with 3-day-old phytohaemagglutinin/interleukin-2 stimulated PBMCs or 6-day-cultured monocyte/macrophages. […] HIV-1 replication in PBMC (ROJO) or monocyte macrophage (Ba-L) cultures were determined by measurement of reverse transcriptase activity (Buckheit et al., Antiviral Res., 21: 247-265 (1993)) in the supernatants or p24 antigen expression by ELISA (Coulter, Hialeah, Fla.), respectively. Cell viability by formazan dye reduction was determined in replicated cultures using the CellTiter reagent (Promega, Madison, Wis.). […]

For series [1], the system named is HIV-1IIIB. Put plainly: Viral attachment assay, cell-associated p24 antigen in HeLa CD4 LTR β-gal cells. The class given is cell-based. The protocol:
(§3) Attachment and fusion assays were performed in HeLa-CD4-LTR-β-galactosidase cell lines as described previously (Gartner & Popovic, (1990), supra) with the following modifications. Following the interaction of HIV-1IIIIIB with HeLa CD4 LTR β-gal cells, viral attachment to HeLa CD4 LTR β-gal cells was detected as cell-associated p24 antigen following a 1 hour adsorption of virus and vigorous washing for removal of unbound virus. Fusion of HIV-1IIIIB with HeLa CD4 LTR β-gal cells was detected by chemiluminescence using a single-step lysis and detection method (Tropix Gal-screen, Bedford, Mass.) and results reported as EC50 values. Chicago Sky Blue, a polysulfonic acid dye inhibitor of HIV attachment and fusion, was used as a positive control for all assays (Clanton et al., J. Acquired Immune Defic. Syndr., 5: 771-781 (1992)).

Another series deals with CEM-SS cells. Put plainly: Direct toxicity to uninfected CEM-SS control cells (XTT). The class given is cell-based, human. Here is the method:
(§4) A 2,3-bis-[2-methoxy-4-nitro-5-sulfophenyl]-2H-tetrazolium-5-carboxanilide inner salt (XTT)-tetrazolium-based assay was used to determine the anti-HIV activity of CNID-1, -2 and -3 against a T-tropic laboratory strain (HIV-1RF) in T-lymphoblastic CEM-SS cells as described previously (Gulakowski et al., J. Virol. Methods, 33: 87-100 (1991)). CEM-SS cells were maintained in RPMI 1640 media without phenol red and supplemented with 10% fetal bovine serum (BioWhittaker), 2 mM L-glutamine (BioWhittaker), and 50 μg/ml gentamicin (BioWhittaker) (complete medium). Exponentially growing cells were washed and resuspended in complete medium, and a 50 μl aliquot containing 5×10^3 cells was added to individual wells of a 96-well round-bottom microtiter plate containing serial dilutions of the respective cnidarin protein in a volume of 100 μl of medium. Stock supernatants of HIV-1RF were diluted in complete medium to yield sufficient cytopathicity (80-90% cell kill in 6 days), and a 50 μl aliquot was added to appropriate wells. Plates were incubated for 6 days at 37° C. and then stained for cellular viability using XTT.
(§5) The HIV reverse transcriptase inhibitor 3′-Azido-3′-deoxythymidine (AZT) was used as a positive control. All assays were carried out in triplicate for all viruses and cells.

In series [2] the test system is HIV-1IIIB. Nature of the series: Viral fusion assay, chemiluminescence in HeLa CD4 LTR β-gal cells. It is filed as cell-based. The protocol:
as §3

A further series concerns human PBMCs. Put plainly: Toxicity in PHA-stimulated human PBMCs, XTT cell viability. To be noted: human PBMCs, XTT, 7 days. The protocol: as §1
The subject of the next series is Macrophage. Put plainly: Cell viability of monocyte/macrophage cultures (CellTiter formazan dye reduction). It is filed as cell-based, human. To be noted: macrophages.
Text: as §2

Another series concerns HIV-1RF. Nature of the series: XTT-tetrazolium anti-HIV assay, HIV-1RF in CEM-SS cells. It is filed as cell-based. The conditions noted are these: for EC50: HIV-1RF, T-tropic laboratory strain, CEM-SS cells, XTT, 6 days. Here is the method:
as §4, §5

Series [3] concerns HeLa CD4 LTR β-galactosidase cells. Put plainly: Cytotoxicity in the attachment and fusion assays. The class given is cell-based. The protocol: as §5, §3
The subject of a further series is PBMC. Nature of the series: Cell viability of PBMC cultures (CellTiter formazan dye reduction). The class given is cell-based, human.
Text: as §2

The target of series [4] is T1, HIV-1IIIB gp120 (Human immunodeficiency virus type 1 group M subtype B, UniProt P04578). To be noted: ELISA, 100 ng/well gp120. The protocol: High protein binding Greiner 96-well plates (VWR, Bridgeport, N.J.) were coated with 1 pmol/well of recombinant HIV-1IIIIB gp120 (Immuno Diagnostics, Woburn, Mass.) or recombinant HIV-1HXB2 gp41 (Vybion Inc., Ithaca, N.Y.) at 4° C. overnight. The wells were emptied and then blocked with 200 μl/well of 3% non-fat dry milk (Bio-Rad, Hercules, Calif.) blocking solution for 2 hrs. A control plate was incubated with blocking solution only. After washing three times with PBST, 0.5-log10 serial dilutions of rCNID-1-Trx were added to triplicate wells of gp120−, gp41− and the blocking solution control plate, and the plates were incubated for 2 hrs. The plates were washed with PBST and 100 W/well of a 1:250 dilution of polyclonal rabbit anti-CNID-1 antibody was added and allowed to incubate for 1 hr, followed by three washes with PBST. Goat anti-rabbit (H+L), peroxidase conjugated secondary antibody (Thermo Fisher Scientific Inc., Rockford, Ill.) was added to each well (100 μl/well of a 1:1000 dilution) and further incubated for 1 hr, followed by three washes with PBST. The TMB 2-component Microwell peroxidase substrate kit (KPL Inc., Gaithersburg, Md.) was used for peroxidase detection: 100 W/well, incubation for 5-10 min and the reaction was stopped by addition of 0.5M HCl (100 W/well) before reading the absorbance at 450 nm.
Briefly, 100 ng/wells of glycosylated recombinant HIV-1IIIB gp120 (Immuno Diagnostics, Woburn, Mass.) or nonglycosylated HIV-1 gp120 (MyBioSource LLC, San Diego, Calif.) was added to the wells of two 96-well plates, and incubated overnight at 4° C. The plates were washed and blocked as previously described. Serial dilutions of rCNID-1-Trx were added (100 W/well); incubation done for 2 hrs. The plates were then washed and visualized using anti-CNID-1 polyclonal antibodies as above.
A general note: In an ELISA, binding on a coated surface is turned into a signal by an enzyme label.

Series [5] deals with T1, HIV-1IIIB gp120. Here is the method:
Recombinant CNID-1 (in fusion with Trx and rEK cleaved forms of rCNID-1) and recombinant HIV-1IIIIB gp120 (Immuno Diagnostics, Woburn, Mass.) controls were resolved on 4-12% Bis-Tris pre-cast SDS-PAGE gels (Life Technologies, Grand Island, N.Y.) and blotted onto polyvinylidine difluoride membranes. Membranes were blocked with 3% BSA for 2 hours. For CNID-1 detection, the membrane was incubated overnight with rabbit anti-CNID-1 (1:2000 dilution). For detection of rCNID-1 binding to gp120, membranes were incubated overnight with 1 μg/ml rgp120, then washed thrice with PBST before being incubated with polyclonal rabbit anti-gp120 (1:1000 dilution) overnight. Membranes were washed three times with PBST and further incubated with goat anti-rabbit (H+L), peroxidase conjugated secondary antibody (Thermo Fisher Scientific Inc., Rockford, Ill.) at a 1:1000 dilution for 1 hr. After washing with PBST, signals were detected on Hyblot CL autoradiography film (Denville Scientific, Metuchen, N.J.) using the SignalFire ECL reagent system (Cell Signaling Technology Inc., Danvers, Mass.) according to the manufacturer's protocol.

Usually EC50 stands for the concentration giving half of the maximal effect.

“And” between values parts separate entries of the source, which are not always exact repeats. Equal entries are not always repeated. Where two headings read alike, the source gives them in different places. Some results are limits rather than exact numbers.

In turn, `Cc1cn([C@H]2C[C@H](N=[N+]=[N-])[C@@H](CO)O2)c(=O)[nH]c1=O` [AZT, 3′-Azido-3′-deoxythymidine, reference compound] yielded a CC50 at 7 days in “in vitro” above 1000 nM. Further, the EC50 in the series with HIV-1US/92/727 (Human immunodeficiency virus 1, PBMC, 168 h, read-out: EC50) amounted to 1.88 nM.

B1: CNID-3: HIV-inhibitory protein from soft coral Synthecium sp.; 170 amino acids, 17,963 Da, SEQ ID NO: 3 (protein)
chain: GKSAYPGQITSDVPFVTFDVPFDGVNIPQDVRFTIATVNGGKLALYNAKLGDPANNTIVLESDGDHPIPGTFDDPKGRGLDYAFGGLLLFSFHNFVGHKKLYREPDSDITADFPPGLGGSSAITGEGSTVQLYTGIDFTGISEIMPVNTKRNFVVAFGNEFKSVSPTGGG
As for B1, the EC50 is 1.55 nM and 1.5 nM in the series with HIV-1ROJO; above 55.7 nM with HIV-1IIIB [1] (read-out: Inhibition of Attachment EC50); 2.06 nM with HIV-1IIIB [2] (read-out: Inhibition of Fusion EC50); 0.0160 µg/mL in the series on HIV-1US/92/727; 0.114 nM in the series on HIV-1RF. Also, in the series with HIV-1IIIB [1], the “Inhibition of viral attachment to the cell” value is listed as “not attachment”. For the same molecule, the CC50 in the series with CEM-SS cells is above 199 nM; in the series with Macrophage, 4.62 nM; in [3] (attachment assay, read-out: Inhibition of Attachment CC50), above 55.7 nM; in series [3] (fusion assay, read-out: Inhibition of Fusion CC50) it was above 55.7 nM; with PBMC, 155 nM. Moreover, in the series with HIV-1IIIB [2], the “Inhibition of viral fusion” value is given as “inhibit HIV viral fusion”. The molecule further displayed a TC50 with human PBMCs above 0.5 µg/mL.

B2: rCNID-1-Trx: thioredoxin-hexahistidine-CNID-1 fusion protein expressed in E. coli (protein)
chain: GRATLGQLKTSTIPPVTFDVPFDGANIPQDVRFTIATVNGGKGALYNAELGESAGHTIVLESDGDHPIPGTFDPKSGRGLDYLPRGLVLFSSHNYVGNMKMYTEPDSDITADFPPGTPFGVSSAITGEGSAFQLNTGIDHTGEFEIIPPNTKRNLAGVFDNEIRSVSPTGGK
modifications: left off: large carriers; small tags and cut ends
notes: thioredoxin-hexahistidine-CNID-1 fusion protein expressed in E. coli
For B2, in the series with HIV-1IIIB gp120 [4], the “Binding to gp120” value is “binds to HIV-1 glycoproteins, gp120”. Moreover, the “Activity after extraction and refolding from inclusion bodies” value in the series with HIV-1RF (CaCl2 presence) is “low-to-partially active”; in the series on HIV-1RF (absence of CaCl2), “inactive”. For the same molecule, the “Binding to gp120 by immunoblot” value in the series with HIV-1IIIB gp120 [5] is recorded as “specific binding”.

B3: rCNID-1 truncated forms: truncated forms of rCNID-1 (~14-16 kDa) from enterokinase digestion of rCNID-1-Trx (protein)
chain: GRATLGQLKTSTIPPVTFDVPFDGANIPQDVRFTIATVNGGKGALYNAELGESAGHTIVLESDGDHPIPGTFDPKSGRGLDYLPRGLVLFSSHNYVGNMKMYTEPDSDITADFPPGTPFGVSSAITGEGSAFQLNTGIDHTGEFEIIPPNTKRNLAGVFDNEIRSVSPTGGK
In turn, B3 had an EC50 with HIV-1RF of 45 to 150 nM. In the series with HIV-1IIIB gp120 [5], the “Binding to gp120 by immunoblot” value is “specific binding”.

These data come from patent US11034736B2, “Anti-viral cnidarins” (priority 2014, dated 2021).
